# Reference: patent US20030008334A1 (published 2003)
# B1: Full-length human nectin-1α expressed on L cells (nectin-1α-L cells) (receptor, UniProt Q15223 31-517, looked up)
# chain: QVVQVNDSMYGFIGTDVVLHCSFANPLPSVKITQVTWQKSTNGSKQNVAIYNPSMGVSVLAPYRERVEFLRPSFTDGTIRLSRLELEDEGVYICEFATFPTGNRESQLNLTVMAKPTNWIEGTQAVLRAKKGQDDKVLVATCTSANGKPPSVVSWETRLKGEAEYQEIRNPNGTVTVISRYRLVPSREAHQQSLACIVNYHMDRFKESLTLNVQYEPEVTIEGFDGNWYLQRMDVKLTCKADANPPATEYHWTTLNGSLPKGVEAQNRTLFFKGPINYSLAGTYICEATNPIGTRSGQVEVNITEFPYTPSPPEHGRRAGPVPTAIIGGVAGSILLVLIVVGGIVVALRRRRHTFKGDYSTKKHVYGNGYSKAGIPQHHPPMAQNLQYPDDSDDEKKAGPLGGSSYEEEEEEEEGGGGGERKVGGPHPKYDEDAKRPYFTVDEAEARQDGYGDRTLGYQYDPEQLDLAENMVSQNDGSFISKKEWYV
# notes: whole, on cells
# Experiments:
# [1] = molecular target: MBP-afadin-PDZ (MBP-fusion protein of the PDZ domain of afadin) (UniProt O35889); assay: affinity chromatography on MBP-afadin-PDZ amylose beads, eluate on SDS-PAGE
# [2] = molecular target: the molecule itself; assay: immunofluorescence microscopy of co-cultured nectin-1α-L and nectin-2α-L cells
# Method: Chemical cross-linking was done according to the method described in references (Blood 92: 4602-4611, 1998; J. Biol. Chem., 275: 613-618, 2000). Immunoprecipitation was performed according to the method described in references (J. Cell Biol., 145: 539-549, 1999; J. Biol. Chem., 275: 613-618, 2000). Immunofluorescence microscopy of cultured cells was done according to the method described in references (J. Cell Biol., 139: 517-528, J. Cell Biol., 145: 539-549, 1999; J. Biol. Chem., 275: 613-618, 2000). Protein concentrations were determined with bovine serum albumin as a control, according to the method described in a reference (Anal. Biochem., 72: 248-254, 1976). SDS-PAGE was done as described (Nature, 227: 680-685, 1970).
# When nectin-1α-L cells were co-cultured with nectin-2α-L cells, nectin-1α and nectin-2α were localized in the cell-cell contact sites of the respective L cells (FIG. 5, A1-A3). However, neither nectin-1α or nectin-2α was detected in the contact sites of the two types of the L cells. In contrast, when nectin-3α-L cells were co-cultured with nectin-1α-L cells, nectin-3α and nectin-1α coexisted in the cell-cell contact site of the two types of the L cells (FIG. 5, B1-B3). The same result was obtained in co-culture of nectin-3α-L cells and nectin-2α-L cells (FIG. 5, C1-C3).
Molecule,stoichiometry of binding (nectin-3α:afadin ratio) [1],binding result [2]
GST-nectin-3α-CP (GST-fusion protein of the cytoplasmic region of nectin-3α) (from UniProt Q9JLB9 433-549),1,–
B1,–,binds
